Assays:
[1] = biological target: Axl (human, UniProt P30530 26-449, biotinylated (site not stated)); assay: BLI
[2] = biological target: human Axl expressed on the surface of cells (human, UniProt P30530 26-894); assay: flow cytometry
[3] = biological target: recombinant human Axl-msFc (human, UniProt P30530 26-449); assay: ELISA; 4-P fit parameter C
Chain of recombinant human Axl-msFc (P30530 26-449): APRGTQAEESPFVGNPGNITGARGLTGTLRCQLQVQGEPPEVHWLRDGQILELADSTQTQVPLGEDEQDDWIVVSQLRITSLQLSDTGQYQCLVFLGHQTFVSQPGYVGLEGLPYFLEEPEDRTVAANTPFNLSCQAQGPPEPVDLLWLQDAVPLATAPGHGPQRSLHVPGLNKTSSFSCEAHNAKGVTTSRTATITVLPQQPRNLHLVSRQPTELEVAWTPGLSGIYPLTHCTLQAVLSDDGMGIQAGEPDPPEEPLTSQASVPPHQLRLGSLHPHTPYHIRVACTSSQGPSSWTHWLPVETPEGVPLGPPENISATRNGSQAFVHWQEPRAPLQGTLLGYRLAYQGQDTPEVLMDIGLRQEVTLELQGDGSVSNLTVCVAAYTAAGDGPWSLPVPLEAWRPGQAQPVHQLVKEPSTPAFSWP

Chain of Axl (P30530 whole entry): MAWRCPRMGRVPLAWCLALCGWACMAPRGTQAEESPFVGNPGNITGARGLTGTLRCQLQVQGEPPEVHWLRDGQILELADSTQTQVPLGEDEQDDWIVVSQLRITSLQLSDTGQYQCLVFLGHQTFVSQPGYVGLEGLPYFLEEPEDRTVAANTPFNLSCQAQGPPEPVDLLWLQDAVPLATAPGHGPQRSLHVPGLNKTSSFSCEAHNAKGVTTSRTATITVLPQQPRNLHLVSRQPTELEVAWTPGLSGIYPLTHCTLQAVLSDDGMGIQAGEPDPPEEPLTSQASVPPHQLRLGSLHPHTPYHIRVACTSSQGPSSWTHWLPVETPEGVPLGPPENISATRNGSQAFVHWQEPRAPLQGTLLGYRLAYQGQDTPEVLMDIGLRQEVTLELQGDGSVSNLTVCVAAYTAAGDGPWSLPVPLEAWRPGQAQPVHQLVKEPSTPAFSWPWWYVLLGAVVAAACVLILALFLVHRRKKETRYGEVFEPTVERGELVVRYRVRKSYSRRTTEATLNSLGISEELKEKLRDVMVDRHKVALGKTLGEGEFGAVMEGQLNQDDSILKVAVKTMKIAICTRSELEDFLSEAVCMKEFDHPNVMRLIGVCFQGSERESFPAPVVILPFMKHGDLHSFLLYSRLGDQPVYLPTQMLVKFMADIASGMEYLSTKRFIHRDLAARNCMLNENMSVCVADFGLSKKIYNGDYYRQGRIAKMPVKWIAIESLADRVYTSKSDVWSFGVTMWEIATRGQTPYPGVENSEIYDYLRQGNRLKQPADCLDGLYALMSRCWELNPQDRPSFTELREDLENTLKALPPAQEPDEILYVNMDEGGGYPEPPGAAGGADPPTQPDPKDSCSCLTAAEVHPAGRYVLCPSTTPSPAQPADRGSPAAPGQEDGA
Chain of human Axl expressed on the surface of cells (P30530 26-894): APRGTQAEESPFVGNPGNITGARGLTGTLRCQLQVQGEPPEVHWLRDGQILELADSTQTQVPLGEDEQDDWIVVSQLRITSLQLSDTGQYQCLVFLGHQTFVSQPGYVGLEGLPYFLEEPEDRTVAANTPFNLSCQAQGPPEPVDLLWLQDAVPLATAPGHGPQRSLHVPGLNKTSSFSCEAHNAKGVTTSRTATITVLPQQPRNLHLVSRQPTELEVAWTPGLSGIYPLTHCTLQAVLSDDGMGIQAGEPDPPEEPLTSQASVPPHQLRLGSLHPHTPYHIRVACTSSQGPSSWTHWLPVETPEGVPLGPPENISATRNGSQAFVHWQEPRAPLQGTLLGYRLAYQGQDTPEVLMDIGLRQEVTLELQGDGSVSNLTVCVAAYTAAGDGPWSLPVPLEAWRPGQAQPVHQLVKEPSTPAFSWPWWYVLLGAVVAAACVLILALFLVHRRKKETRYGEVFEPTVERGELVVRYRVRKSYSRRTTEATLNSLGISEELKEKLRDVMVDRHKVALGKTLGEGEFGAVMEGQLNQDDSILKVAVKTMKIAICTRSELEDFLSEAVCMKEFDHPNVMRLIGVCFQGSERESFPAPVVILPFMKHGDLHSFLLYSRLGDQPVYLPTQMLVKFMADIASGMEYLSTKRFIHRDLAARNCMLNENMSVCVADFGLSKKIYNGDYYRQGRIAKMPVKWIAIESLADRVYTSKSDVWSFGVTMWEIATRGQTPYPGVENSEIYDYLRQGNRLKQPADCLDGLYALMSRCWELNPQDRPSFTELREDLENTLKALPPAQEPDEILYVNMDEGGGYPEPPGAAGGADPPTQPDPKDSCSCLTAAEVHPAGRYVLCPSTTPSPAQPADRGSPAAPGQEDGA

Row | Binder | Kd [1] [nM] | EC50 [2] [µg/mL] | EC50 [3] [µg/mL]
1 | Ab302 (antibody, V domains shown) VH: EVQLVESGGGLVKPGGSLKLSCAASGFTFSDYWMEWVRQAPGKGLEWVAEIRNKVNNYATYYGKSVKGRFTISRDDSKNTLYLQMNSLKTEDTAVYYCNTLRLFAYWGQGTLVTVSS VL: DIQMTQSPSSLSASVGDRVTITCRSSKSLLHRQGITYVYWYQQKPGKVPKLLIYRMSTLASGVPSRFSGSGSGTDFTLTISSLQPEDVATYYCGQLLENPYTFGQGTKLEIK | 0.705 | – | 0.02
2 | Ab304 (antibody, V domains shown) VH: EVQLVESGGGLVQPGGSLRLSCAASGFTFSDYWMEWVRQAPGKGLEWVGEIRNKVNNYATYYGKSVKGRFTISRDESKNSLYLQMNSLKTEDTAVYYCNTLRLFAYWGQGTTVTVSS VL: DIQMTQSPSSLSASVGDRVTITCRSSKSLLHRQGITYVYWYQQKPGKVPKLLIYRMSTLASGVPSRFSGSGSGTDFTLTISSLQPEDVATYYCGQLLENPYTFGQGTKLEIK | 0.909 | – | 0.018
3 | Ab305 (antibody, V domains shown) VH: EVQLVESGGGLVQPGRSLRLSCTASGFTFSDYWMEWVRQAPGKGLEWVGEIRNKVNNYATYYGKSVKGRFTISRDDSKSIAYLQMNSLKTEDTAVYYCNTLRLFAYWGQGTLVTVSA VL: DIQMTQSPSSLSASVGDRVTITCRSSKSLLHRQGITYVYWYQQKPGKVPKLLIYRMSTLASGVPSRFSGSGSGTDFTLTISSLQPEDVATYYCGQLLENPYTFGQGTKLEIK | 1.55 | – | 0.019

The next binders have a lower Kd [1] than those just listed; values first:

Row | Kd [1] [nM] | EC50 [2] [µg/mL] | EC50 [3] [µg/mL] | Binder
4 | 0.466 | 0.025 | 0.019 | Ab301 (antibody, V domains shown) VH: EVKLEASGGGLVQPGMSVKLSCTTSGFTFSDYWMEWVRQAPGKGLEWVAEIRNKVNNYATYYGKSVKGRFTISRDDSKSIVYLQMNSIRSEDTGIYYCNTLRLFAYWGQGTLVTVSA VL: DIVMTQAPLSISVTPGESPSMSCRSSKSLLHRNGITYVYWYLQKPGKSPQLLIYRMSTLASGVPDRFSGSGSETDFTLKINKVEAEDVGIYYCGQLLENPYTFGAGTRLEIK
5 | 0.386 | – | 0.019 | Ab303 (antibody, V domains shown) VH: EVQLVESGGGVVQPGRSLRLSCAASGFTFSDYWMEWVRQAPGKGLEWVAEIRNKVNNYATYYGKSVKGRFTISRDNSKNTLYLQMNSLRAEDTAVYYCNTLRLFAYWGQGTLVTVSS VL: DIQMTQSPSSLSASVGDRVTITCRSSKSLLHRQGITYVYWYQQKPGKVPKLLIYRMSTLASGVPSRFSGSGSGTDFTLTISSLQPEDVATYYCGQLLENPYTFGQGTKLEIK

Reference: patent US20220177593A1 (published 2022)
